# Results taken from patent US20200270588A1, “GLUCOSYL TRANSFERASE POLYPEPTIDES AND METHODS OF USE” (Syngenta Participations AG, priority 2017, published 2020).
# Experiment: UDP luminescence plate assay of E. coli extracts, saturation mutants of SEQ ID NO: 1, herbicide V
# Format: biochemical, Zea mays
# Details: improvement factor relative to w/t bx9 = 1.0, rounded to nearest 0.5; extract activity basis; compound V
# Experimental: Competent BL21 (DE3) cells are transformed as in the foregoing examples and, following seed culturing, grown and autoinduced in plates in a 0.5-1 ml volume of autoinduction medium containing 50 ug/ml kanamycin. Plates are incubated at 37° C. and shaken at 900 rpm. Growth is monitored by taking 20 ul aliquots, diluting 10 fold into flat-bottomed 96 well microtiter plates and reading OD600n at t=0, 1, 2, 2½ and 3 hours if necessary. At a (corrected) OD600 nm˜0.2, plates are transferred to 20° C. and shaken overnight at 900 rpm in a Jencons VWR plate incubator. After ˜18-20 h the final OD600 readings are recorded and the plates centrifuged at 4600 rpm (bench top centrifuge) for 10 min at 4° C. The supernatant is discarded and the pellets then washed with 0.25 ml PBS by repeat centrifugation and removal of supernatant before freezing cell pellets at −80° C. To prepare extracts, plates are allowed to thaw for 30 min and then pellets are resuspended in 0.25 ml of a suitable lysis buffer (for example—50 mM Tris HCL buffer at pH 8.0, 5% glycerol containing 50 mM NaCl and lysonase) mixed, incubated at room temperature for a sufficient time for lysis to be near complete and then centrifuged to remove cell debris and 100 ul of supernatant extract removed to a 96 well V-shaped well plate and stored on ice prior to assay.
# Optionally plate assays are stopped with brief heating to 95 C before returning to ice and addition of UDP-Glo detection reagent followed by incubation at lab temperature. […] In addition a UDP standard curve is run alongside each set of plate tests.
# Making use of the ELISA assay it is then possible to calculate a specific activity (e.g. in Relative Luminescence Units (RLU)/min/ug bx protein) based upon the amount of each mutant bx9 polypeptide expressed in each well. […] The specific activity of the various test mutant extracts on the same plate are then expressed as a fraction of the specific activity of the w/t bx9 and thus the ‘improvement factor’ versus the w/t expressed as a decimal where, for example, ‘0.5’ means half the specific activity of the wild type and 2.0 means twice the specific activity of the wild type. However, as will be readily apparent to the skilled man, particularly in cases where the UDP assay signal was low (with poor signal to noise versus the background) and/or the ELISA measurement of bx protein also low such a method is prone to generate spurious high specific activity numbers and uncertain numbers.
row,Molecule,Preferred amino acid substitutions and (IF) based on RLU/min/ul
1,"A280V: bx9 SEQ ID NO:1 mutant (protein, Zea mays) MASSRTGAGAGGRVVVFPFPFQGHFNPVMRLARALHARGLAITVFHSGALDPADYPADYRFVPVTVEADPKLLASEDIAAIVTTLNASCDAPFRARLSALLAAEGRDSVRCVFTDVSWNAVLTASSDLGVPALGMMTASAASLRDYMAYRTLIDKGYLPVKEERKEDPVPELPPYLVKDLLRVDTSDLEEFAELLARTVTAARRASGLIFNTFPLIETDTLAEIHKALSVPVFAVAPLNKLVPTATASLHGVVQADRGCLQWLDTQQPGSVLYVSFGSMVAMDPHEFVELAWGLADSKRPFVWVVRPNLIRGFESGALPDGVEDEVRGRGIVVAWAPQEEVLAHPAVGGFLTHNGWNSTVEAISEGVPMVCCPRHGDQFGNMRYVCDVWKVGTELVGEQLERGQVKAAIDRLFGTKEGEEIKERMKEFKIAAAKGIGIGVDVDETASPRTDLTDLVDLIKSF",V(1.0)
2,"A281V: bx9 SEQ ID NO:1 mutant (protein, Zea mays) MASSRTGAGAGGRVVVFPFPFQGHFNPVMRLARALHARGLAITVFHSGALDPADYPADYRFVPVTVEADPKLLASEDIAAIVTTLNASCDAPFRARLSALLAAEGRDSVRCVFTDVSWNAVLTASSDLGVPALGMMTASAASLRDYMAYRTLIDKGYLPVKEERKEDPVPELPPYLVKDLLRVDTSDLEEFAELLARTVTAARRASGLIFNTFPLIETDTLAEIHKALSVPVFAVAPLNKLVPTATASLHGVVQADRGCLQWLDTQQPGSVLYVSFGSMAVMDPHEFVELAWGLADSKRPFVWVVRPNLIRGFESGALPDGVEDEVRGRGIVVAWAPQEEVLAHPAVGGFLTHNGWNSTVEAISEGVPMVCCPRHGDQFGNMRYVCDVWKVGTELVGEQLERGQVKAAIDRLFGTKEGEEIKERMKEFKIAAAKGIGIGVDVDETASPRTDLTDLVDLIKSF","S,T,V(1.0)"
3,"A281T: bx9 SEQ ID NO:1 mutant (protein, Zea mays) MASSRTGAGAGGRVVVFPFPFQGHFNPVMRLARALHARGLAITVFHSGALDPADYPADYRFVPVTVEADPKLLASEDIAAIVTTLNASCDAPFRARLSALLAAEGRDSVRCVFTDVSWNAVLTASSDLGVPALGMMTASAASLRDYMAYRTLIDKGYLPVKEERKEDPVPELPPYLVKDLLRVDTSDLEEFAELLARTVTAARRASGLIFNTFPLIETDTLAEIHKALSVPVFAVAPLNKLVPTATASLHGVVQADRGCLQWLDTQQPGSVLYVSFGSMATMDPHEFVELAWGLADSKRPFVWVVRPNLIRGFESGALPDGVEDEVRGRGIVVAWAPQEEVLAHPAVGGFLTHNGWNSTVEAISEGVPMVCCPRHGDQFGNMRYVCDVWKVGTELVGEQLERGQVKAAIDRLFGTKEGEEIKERMKEFKIAAAKGIGIGVDVDETASPRTDLTDLVDLIKSF","S,T,V(1.0)"
4,"A281S: bx9 SEQ ID NO:1 mutant (protein, Zea mays) MASSRTGAGAGGRVVVFPFPFQGHFNPVMRLARALHARGLAITVFHSGALDPADYPADYRFVPVTVEADPKLLASEDIAAIVTTLNASCDAPFRARLSALLAAEGRDSVRCVFTDVSWNAVLTASSDLGVPALGMMTASAASLRDYMAYRTLIDKGYLPVKEERKEDPVPELPPYLVKDLLRVDTSDLEEFAELLARTVTAARRASGLIFNTFPLIETDTLAEIHKALSVPVFAVAPLNKLVPTATASLHGVVQADRGCLQWLDTQQPGSVLYVSFGSMASMDPHEFVELAWGLADSKRPFVWVVRPNLIRGFESGALPDGVEDEVRGRGIVVAWAPQEEVLAHPAVGGFLTHNGWNSTVEAISEGVPMVCCPRHGDQFGNMRYVCDVWKVGTELVGEQLERGQVKAAIDRLFGTKEGEEIKERMKEFKIAAAKGIGIGVDVDETASPRTDLTDLVDLIKSF","S,T,V(1.0)"
